Results from paper PMC4966879.
Like-named read-outs stand apart in the source and are kept apart here.

What was measured:
Assay in all cases: SAXS
[1] = target: T1, HUαα (Escherichia coli, UniProt P0ACF0 1-90)
[2] = target: T2, HUαβ (Escherichia coli, UniProt P0ACF0;P0ACF4 1-90;1-90)
[3] = target: T2, HUαβ; remark: listed apart in the source
[4] = target: T1, HUαα; remark: listed apart in the source
[5] = target: HUαα V45E (Escherichia coli, UniProt P0ACF0 1-90, V45E)
[6] = target: HUα38α38 (Escherichia coli, UniProt P0ACF0 1-90, E38K;V42L)
[7] = target: HUαα P63E (Escherichia coli, UniProt P0ACF0 1-90, P63E)
[8] = target: HUαα G82E (Escherichia coli, UniProt P0ACF0 1-90, G82E)

Measured: binding result

B1: 20-bp DNA (dsDNA)
DNA 1: GTTCAATTGTTGTTAACTTG
DNA 2: CAAGTTAACAACAATTGAAC
binds: [1] | [2]

B2: 80-bp DNA (dsDNA)
DNA 1: AATGAGGTAACAACGAAAGCAGATGATAGCTGCTTATCAATTTGTTGCAAACAAGTAGCCGCGCCCAATGAGGTAACAAT
DNA 2: ATTGTTACCTCATTGGGCGCGGCTACTTGTTTGCAACAAATTGATAAGCAGCTATCATCTGCTTTCGTTGTTACCTCATT
not listed: [1] | [2]
binds: all other assays above
